We go through three substances from PMC10304477.

The target in experiment [1] is extracellular domain of the S protein of SARS-CoV-2 Omicron BA.3 (BA.3-S) (SARS-CoV-2 Omicron BA.3). Put plainly: cryo-EM structure.
Experiment [2] has as its target extracellular domain of the S protein of SARS-CoV-2 Omicron BA.1 (BA.1-S) (SARS-CoV-2 Omicron BA.1). Put plainly: cryo-EM structure.

In the case of “extracellular domain of the S protein of SARS-CoV-2 Omicron BA.3 (BA.3-S) (domain or fragment)”, the stoichiometry N – broadly, the number of molecules, sites or subunits per partner or assembly – in experiment [1] amounted to 3.

In turn, “peptidase domain (PD) of human ACE2 (from UniProt Q9BYF1 19-615) (domain or fragment)” came in with a stoichiometry N (ACE2-PD per S trimer) in experiment [2] of 2.

As for “extracellular domain of the S protein of SARS-CoV-2 Omicron BA.1 (BA.1-S) (domain or fragment)”, in experiment [2], the stoichiometry N was determined as 3.
